One assay addresses T1, GPR119 (Homo sapiens, UniProt Q8TDV5).
T1 construct: expressed in transfected cells; host or cells: CHO
T1 sequence (Q8TDV5 1-335): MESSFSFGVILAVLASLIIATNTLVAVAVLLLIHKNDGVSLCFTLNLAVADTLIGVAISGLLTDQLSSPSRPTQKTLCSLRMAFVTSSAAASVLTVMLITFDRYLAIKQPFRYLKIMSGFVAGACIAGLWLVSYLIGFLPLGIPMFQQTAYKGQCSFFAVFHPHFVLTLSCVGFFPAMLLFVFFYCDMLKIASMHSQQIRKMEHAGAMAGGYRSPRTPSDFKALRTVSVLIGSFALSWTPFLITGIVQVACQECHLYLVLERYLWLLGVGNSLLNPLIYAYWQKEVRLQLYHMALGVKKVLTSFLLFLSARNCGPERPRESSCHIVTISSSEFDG
The settings on record: CHO cells expressing GPR119; cited from earlier work.

The target of the next assay is GLP-1 receptor (UniProt P43220). In words: cell-based or functional assay.
For a further assay, the target named is glucagon receptor (UniProt P47871). In words: cell-based or functional assay.
glucagon receptor, sequence (P47871 26-477 limits assumed): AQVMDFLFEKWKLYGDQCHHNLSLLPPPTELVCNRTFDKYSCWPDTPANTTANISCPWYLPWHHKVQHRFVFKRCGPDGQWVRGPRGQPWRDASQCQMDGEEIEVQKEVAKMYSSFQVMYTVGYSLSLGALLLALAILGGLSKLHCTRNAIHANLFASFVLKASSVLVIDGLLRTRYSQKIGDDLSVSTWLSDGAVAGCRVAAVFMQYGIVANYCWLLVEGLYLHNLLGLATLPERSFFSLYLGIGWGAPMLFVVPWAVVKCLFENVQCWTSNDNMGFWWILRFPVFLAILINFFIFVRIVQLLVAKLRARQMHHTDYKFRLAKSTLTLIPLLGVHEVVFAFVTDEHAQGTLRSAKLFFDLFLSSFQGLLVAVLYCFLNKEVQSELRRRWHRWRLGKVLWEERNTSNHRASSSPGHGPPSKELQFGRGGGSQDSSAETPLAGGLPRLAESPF

GLP-1 receptor, sequence (P43220 24-463 limits assumed): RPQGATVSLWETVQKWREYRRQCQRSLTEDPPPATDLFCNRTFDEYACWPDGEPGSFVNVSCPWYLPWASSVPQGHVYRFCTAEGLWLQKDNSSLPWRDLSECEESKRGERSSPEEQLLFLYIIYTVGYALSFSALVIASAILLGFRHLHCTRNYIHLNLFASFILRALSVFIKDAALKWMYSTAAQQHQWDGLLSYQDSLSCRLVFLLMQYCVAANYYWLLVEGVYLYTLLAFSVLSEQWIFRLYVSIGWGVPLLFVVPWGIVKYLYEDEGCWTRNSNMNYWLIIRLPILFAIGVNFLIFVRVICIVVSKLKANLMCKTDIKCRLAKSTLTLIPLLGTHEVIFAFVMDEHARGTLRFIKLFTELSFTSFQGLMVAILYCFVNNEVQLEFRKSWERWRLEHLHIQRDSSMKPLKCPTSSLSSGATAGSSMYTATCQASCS

Turning to platelet-activating factor, the cAMP levels entry on GPR119 is “increased cAMP levels”.
With “E9, E16K20(lactam) glucagon(6-39) Cex peptide (Peptide 3 of Table 13)”, in the assay with GLP-1 receptor, the GLP-1 EC50 was determined as 36 nM and the GLP-1 ECso stood at 36 nM. For the same molecule, in the assay with glucagon receptor, the Glu ICso was 42 nM and the Glucagon IC50 is 42 nM.
Turning to “[E9, E16K20(lactam), D28]G(2~29) (peptide)”, the Glucagon IC50 (nM); PA = partial antagonist with glucagon receptor came to 49 nM.
In the assay with glucagon receptor, “E9, K12, E16 glucagon(6-39) Cex peptide (Peptide 1 of Table 13)” showed a Glu ICso of 762 nM and a Glucagon IC50 of 762 nM.
For `CCCCCCCCCCCCCCCCOC[C@@H](O)COP(=O)([O-])OCC[N+](C)(C)C` [lyso-platelet activating factor], the cAMP levels entry on GPR119 is “increased cAMP levels”.
Consider “E9, K12E16(lactam) glucagon(6-39) Cex peptide (Peptide 2 of Table 13)”, for which, in the assay with GLP-1 receptor, the GLP-1 EC50 was 63 nM and the GLP-1 ECso came to 63 nM. In the assay with glucagon receptor, this molecule came in with a Glu ICso of 2010 nM and a Glucagon IC50 of 2010 nM.
As to “D9, K12E16(Lactam) glucagon(6-39) Cex peptide (Peptide 4 of Table 13)”, in the assay with GLP-1 receptor, the GLP-1 EC50 is 18 nM and the GLP-1 ECso turned out to be 119 nM. In the assay with glucagon receptor, this molecule displayed a Glu ICso of 828 nM and a Glucagon IC50 of 828 nM.

These data come from patent US20160051688A1 (Indiana University Research and Technology Corporation, priority 2010, published 2016).
